Reference: paper PMC3689955 (The Journal of Biological Chemistry, 2013)

Target: T1, Ligase IV (UniProt P49917 1-911)
T1 construct: DNA Ligase IV, the subunit of XL; also called DNA Ligase IV
T1 sequence (looked up): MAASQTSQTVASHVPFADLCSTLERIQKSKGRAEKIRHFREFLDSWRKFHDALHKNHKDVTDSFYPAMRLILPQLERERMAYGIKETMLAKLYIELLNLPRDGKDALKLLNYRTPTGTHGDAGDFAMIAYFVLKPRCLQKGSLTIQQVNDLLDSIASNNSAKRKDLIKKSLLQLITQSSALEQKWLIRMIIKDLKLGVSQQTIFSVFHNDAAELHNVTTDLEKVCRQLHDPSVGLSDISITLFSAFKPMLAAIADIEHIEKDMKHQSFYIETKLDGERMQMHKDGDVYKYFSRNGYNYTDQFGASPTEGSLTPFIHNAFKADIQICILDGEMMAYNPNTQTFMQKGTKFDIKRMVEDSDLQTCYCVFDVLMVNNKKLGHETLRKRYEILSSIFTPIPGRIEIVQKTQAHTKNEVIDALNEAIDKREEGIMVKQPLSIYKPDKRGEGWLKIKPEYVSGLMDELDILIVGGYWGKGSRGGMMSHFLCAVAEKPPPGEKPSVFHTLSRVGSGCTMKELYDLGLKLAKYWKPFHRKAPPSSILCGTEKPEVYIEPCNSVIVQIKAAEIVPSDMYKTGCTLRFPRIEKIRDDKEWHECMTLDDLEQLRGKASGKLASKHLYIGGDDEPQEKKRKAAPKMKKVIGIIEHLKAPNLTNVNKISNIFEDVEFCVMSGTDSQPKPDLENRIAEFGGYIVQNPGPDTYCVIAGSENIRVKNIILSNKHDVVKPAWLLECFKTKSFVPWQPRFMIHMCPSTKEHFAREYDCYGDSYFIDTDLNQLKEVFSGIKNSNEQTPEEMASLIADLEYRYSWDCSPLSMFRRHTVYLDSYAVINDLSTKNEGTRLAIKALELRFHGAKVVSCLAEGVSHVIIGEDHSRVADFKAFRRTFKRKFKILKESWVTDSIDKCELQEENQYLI
Settings: both partners purified

B1: XRCC4 (natural protein, UniProt Q13426 1-336, looked up)
chain: MERKISRIHLVSEPSITHFLQVSWEKTLESGFVITLTDGHSAWTGTVSESEISQEADDMAMEKGKYVGELRKALLSGAGPADVYTFNFSKESCYFFFEKNLKDVSFRLGSFNLEKVENPAEVIRELICYCLDTIAENQAKNEHLQKENERLLRDWNDVQGRFEKCVSAKEALETDLYKRFILVLNEKKTKIRSLHNKLLNAAQEREKDIKQEGETAICSEMTADRDPVYDESTDEESENQTDLSGLASAAVSKDDSIISSLDVTDIAPSRKRRQRMQRNLGTEPKMAPQENQLQEKENSRPDSSLPETSKKEHISAENMSLETLRNSSPEDLFDEI
notes: also called XRCC4 homodimer
B1 was tested, and the “stoichiometry N” value was < 1 XRCC4 dimer to Ligase IV molar ratio.
